In test [1] the target is human melanocortin 4 receptor (human) (UniProt P32245). As to the kind of experiment: cell-based or functional assay.
Test [2] deals with MC1-R of B-16 mouse melanoma cells (mouse) (UniProt Q01727). As to the kind of experiment: radioligand competition, [I125]-NDP-α-MSH, B-16 membranes. (In a radioligand displacement assay an active substance lowers the binding of a labelled ligand.)
Test [3] has as its target human melanocortin 3 receptor (human) (UniProt P41968). Kind of test: radioligand competition, [I125]-NDP-α-MSH, hMC3-R membranes.
Test [4] has as its target human melanocortin 4 receptor (human) (UniProt P32245). As to the kind of experiment: radioligand competition, [I125]-NDP-α-MSH, hMC4-R membranes.
Test [5] addresses human melanocortin 5 receptor (human) (UniProt P33032). As to the kind of experiment: radioligand competition, [I125]-NDP-α-MSH, hMC5-R membranes.
Test [6] deals with MC1-R of B-16 mouse melanoma cells (mouse) (UniProt Q01727). Kind of test: radioligand competition, [I125]-NDP-α-MSH, B-16 membranes, 1 µM compound.
For test [7], the target named is human melanocortin 3 receptor (human) (UniProt P41968). As to the kind of experiment: radioligand competition, [I125]-NDP-α-MSH, hMC3-R membranes, 1 µM compound.
human melanocortin 3 receptor (human), sequence (P41968 whole entry): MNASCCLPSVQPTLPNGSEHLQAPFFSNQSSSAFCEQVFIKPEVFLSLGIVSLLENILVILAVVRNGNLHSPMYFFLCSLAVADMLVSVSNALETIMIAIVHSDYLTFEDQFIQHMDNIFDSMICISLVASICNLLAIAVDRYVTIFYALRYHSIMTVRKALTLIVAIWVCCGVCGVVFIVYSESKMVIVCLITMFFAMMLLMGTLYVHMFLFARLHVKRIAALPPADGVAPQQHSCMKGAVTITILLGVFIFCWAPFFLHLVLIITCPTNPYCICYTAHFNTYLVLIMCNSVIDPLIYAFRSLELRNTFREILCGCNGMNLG
For test [8], the target named is human melanocortin 4 receptor (human) (UniProt P32245). As to the kind of experiment: radioligand competition, [I125]-NDP-α-MSH, hMC4-R membranes, 1 µM compound.
Test [9] concerns the target human melanocortin 5 receptor (human) (UniProt P33032). As to the kind of experiment: radioligand competition, [I125]-NDP-α-MSH, hMC5-R membranes, 1 µM compound.

Where only a bound is given, the exact number is not on record here.

Usually Ki stands for a dissociation constant, usually derived from enzyme kinetics or from competition with a known ligand. Broadly, the Inhibition is the percentage by which the read-out fell short of the control.

human melanocortin 4 receptor (human), sequence (P32245 whole entry): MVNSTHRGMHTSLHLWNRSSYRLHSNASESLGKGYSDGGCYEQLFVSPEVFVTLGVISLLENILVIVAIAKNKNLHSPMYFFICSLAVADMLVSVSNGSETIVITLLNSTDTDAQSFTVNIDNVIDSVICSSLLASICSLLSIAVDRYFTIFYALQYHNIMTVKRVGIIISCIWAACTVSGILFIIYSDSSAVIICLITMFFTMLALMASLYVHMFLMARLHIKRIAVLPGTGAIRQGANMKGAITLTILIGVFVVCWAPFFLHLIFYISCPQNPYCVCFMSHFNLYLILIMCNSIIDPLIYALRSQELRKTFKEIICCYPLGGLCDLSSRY
MC1-R of B-16 mouse melanoma cells (mouse), sequence (Q01727 whole entry): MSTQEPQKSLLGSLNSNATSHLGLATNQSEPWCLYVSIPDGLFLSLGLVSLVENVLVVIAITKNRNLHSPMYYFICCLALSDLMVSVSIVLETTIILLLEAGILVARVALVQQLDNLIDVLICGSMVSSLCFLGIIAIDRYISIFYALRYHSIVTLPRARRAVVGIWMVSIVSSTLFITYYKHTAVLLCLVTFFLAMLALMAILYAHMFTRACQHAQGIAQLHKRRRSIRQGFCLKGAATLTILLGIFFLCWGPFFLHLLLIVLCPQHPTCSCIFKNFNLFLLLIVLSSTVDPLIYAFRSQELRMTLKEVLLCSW
human melanocortin 5 receptor (human), sequence (P33032 whole entry): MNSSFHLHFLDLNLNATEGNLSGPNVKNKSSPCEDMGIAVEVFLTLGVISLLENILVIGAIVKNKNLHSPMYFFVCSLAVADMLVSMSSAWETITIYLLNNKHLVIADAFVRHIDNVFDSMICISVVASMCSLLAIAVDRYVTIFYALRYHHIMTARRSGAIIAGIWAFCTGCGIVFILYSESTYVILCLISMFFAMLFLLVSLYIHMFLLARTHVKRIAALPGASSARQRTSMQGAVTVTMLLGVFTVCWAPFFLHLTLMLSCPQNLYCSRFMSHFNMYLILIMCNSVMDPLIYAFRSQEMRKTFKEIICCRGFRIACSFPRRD

Take “2-naphthylacetyl-1-amino-1-cyclohexane-carbonyl-D-Phe(4-Cl)-Arg-Trp-NH2 (peptide)”: the EC50 (nM), normal system (cAMP) in test [1] was more than 1000 nM. Besides, the intrinsic activity, normal system (cAMP) in test [1] was determined as 0.2. The Ki in test [2] turned out to be 897 nM; in [3], 453 nM; in test [4], 40 nM; in test [5], 300 nM. Besides, the Inhibition at 1 µM (NDP-α-MSH) is 25% in test [6], 35% in [7], 92% in test [8] and 63% in [9].

As for “7'-amino-heptanoyl-Ser(Bzl)-D-Phe(4-Cl)-Arg-S-(-)-1-(1-naphthyl)ethylamide (peptide)”, in test [1], the EC50 (nM) (cAMP), High Receptor Density System amounted to 180 nM. The substance also had an EC50 (nM), normal system (cAMP) in [1] of 17 nM. Besides, the Efficacy/Intrinsic Activity (cAMP), High Receptor Density System in test [1] was 0.63. In test [1], this substance displayed an intrinsic activity, normal system (cAMP) of 0.3. In addition, the Ki came out at 338 nM in [2], 125 nM in test [3], 7 nM in [4] and 313 nM in [5]. For the same substance, the Inhibition at 1 µM (NDP-α-MSH) in test [6] stood at 46%; in test [7], 85%; in test [8], 98%; in test [9] it was 64%.

On to PT-141 (peptide), for which, in test [1], the EC50 (nM) (cAMP), 0.1 ng/mL Doxycycline came to 3 nM; the EC50 (nM) (cAMP), 10 ng/mL Doxycycline was determined as 0.9 nM; the Efficacy/Intrinsic Activity (cAMP), 0.1 ng/mL Doxycycline turned out to be 0.9; the Efficacy/Intrinsic Activity (cAMP), 10 ng/mL Doxycycline came to 1.
